Test: yeast display, Sf9 membrane polyspecificity reagent, FACS + sequencing; frameworks hold sequencing errors
Outline: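 Synthetic nanobody libraries on Saccharomyces cerevisiae BJ5465 were galactose-induced for 36–48 hours, stained 1 hour at 4 °C with 10% biotinylated, detergent-solubilized Sf9 membrane reagent and enriched on streptavidin microbeads. FACS then separated cells into low and high (top ~1%) gates by anti-HA (expression) and streptavidin (reagent binding) fluorescence. Genes were colony-PCR amplified, MiSeq 2 × 250 sequenced and CDR-length filtered. A clone's polyreactivity label is that of its gate of origin.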

Sequence | polyreactivity (PSR sort gate)
QVQLVESGGGLDQAGGSLRLSCADSGSTFGLYAMGWYRQAPGKETELVAVISWRGGSTYYADSVKGRFTISRDNAKITVYFQMNSLKPEDTAVYYCAAYCLYPYVRYDYWGLGTQVTVSS | low polyreactivity
QVQLVESGGGLDQAGGSLRLSSAASGSIVDSNAMGWYRQAPGKASEMVASITSSGGSTYYADSVKGRFTISRDNAKNTVYLQMNSVKPEDTAVYYCAPKQAQSRYRLWSTSGYWGQGTQVTVSS | high polyreactivity
QVQLVESGGGLDQAGGSLRLSSAAYGRIFRRYAMGWYRQSHGKERELVAAITSGGGSTYYADSVKGRFTISRDNAKNTVYLQMNSLKPEETAVYYCNKSSLEFVKGKYGYWGQGTQVTVSS | low polyreactivity
QVQLVESGGGLDQAGGSLRLTCAASGFNFSYYVMGWYRQAPGKERELVAAITKSGGSTYYADSVKGRFTIARDNAKNTVYLQMYSLKPEDTAVYFLAAVRGYRCYDYWGQGTQVTVSS | high polyreactivity
QVQLVESGGGLDQAGGSLRLTCAASGGTFVSNAMRWSRQAPGKERELVAAISSSTGSTYYADSVKGRFTISRDNAKKTVYLQMISLKPEDTAVYYCAADSWWDYDSWGQGPQVTVSS | low polyreactivity
QVQLVESGGGLDQAGGSLRLTCAASGITFTQYAMGWYRQAPGKEREFVAGITFSGSSTYYADSVKGRFTISRDNAKNTVYLQMNSLKPEDTAVYYCAAESWYKYIYGYPRLFDYWGQATQVTVSS | low polyreactivity
QVQLVESGGGLDQARGSLRLSCAASGLTFHRYAMGWYRQANGKERELVAAINYSGGRTYYADSVKGRFTISRDNAKNTVYLQMNSLKPEDTAVYYCNAVRYQKIFDYWGQGTQVTVSS | high polyreactivity
QVQLVESGGGLDQARGSLRLSCAASGRTFVLNAMGWYRQAPGKERELVAAITLGGGSTYADSVKGRFTISRANAKNTVYLQMNSLKPEDTAVYYCAADFHYPYFEYWGQGTQVTVSS | low polyreactivity
QVQLVESGGGLDQEGGSLRLSCAASGRIFARNAMGWYRQAPGKERELVAAIRNSDGSTYYADSVKGRFTISRDNAKNTVYLQMNSLKPEDTAVYYCAARSGSYRKYGYWGQGTQVTLSS | high polyreactivity
QVQLVESGGGLDQPGGSLRLSCAASGRIFRTYAMGWYRQAPGKQRELVAAINSVHRTYYADSVKGRFTITRDNAKNTVNLQMYCQKPEDSAVYYCNARYVLKVSQYGYWGQGTQVTVSS | high polyreactivity
QVQLVESGGGLDQSGGSLSLSCAASGSNFRLNAMGWSRQAPGKETELVAAISYRGGSTNYADSVKGRFTISRDNAKNTVYLQMNILKPEDTAVYYCAANIYRSSGQCMDYWGQGTEVTVSS | low polyreactivity
QVQLVESGGGLEQAGGSLRISCAASGITFRWYAMGWYRQAPGKERELVAAISERGGSTYYADSVKGRFTISRDNAKNTVYLQMNSLKPEDTAVYYCAADSQHWQRWHGYWGQGTEVTVSS | high polyreactivity
QVQLVESGGGLEQAGGSLRLSCAASGGTFARYVMGWYRQAPGKERELVAAITSGGRTYYADSVKGRFTISRDNAKNTVYLQMNSLKPEDTAVYYCATAPRRRATSYYYWGQGTQVTVSS | high polyreactivity
QVQLVESGGGLFQAGGILRLSCAASGFTFERNDMGWYRQAPGKERELVATISQSGTNTYYADSVKGRFTISRDNAKNTVYVQMNSMKPEDTAVYYCNARYIFYRYDYWGHGTQVTVSS | low polyreactivity
QVQLVESGGGLFQAGGRLRLSCASSGYTFDYYTMAWYRQAPGKERELVARITASGGSTYYADSVKGRFTISRDNAKNTVYLQMNSLKPEDTAVYYCAADYWWYTGYDYWGQGTQVTVSS | high polyreactivity
QVQLVESGGGLFQAGGSLRISCAASGFIFSFYAMGWYRQAPGKERELVAAITSSGATTYYADSVKGSFTISRDNAKNTVYLQMNSLKPEDTAVYYCNAVYRRDTGYYRYYYWGQGTQVTVSS | high polyreactivity
QVQLVESGGGLFQAGGSLRISCAASGSIFRSYAMGWYRQAPGKERELVASISRRGGSTYYADSVKGRFTISRDNAKNTVYLQMNSLKPEDTAVYYCAAVRYNSRVSTTPSEMYYWGQGTQVTVSS | low polyreactivity

From the nanobody polyreactivity screen of Harvey et al. (2022)
